The RNAGym collection of RNA variant scans (doi:10.1073/pnas.2313332121)

B1: TPR t1 (parent)
chain: GACCAAUCUGCCCUCAGAGCUCGAGAACAUCUUCGGAUGCAGAGGAGGCAGGCUUCGGUGGCGCGAUAGCGCCAACGUCCUCAACCUCCAAUGCAUCCCACCACAUGAUGAUGCCUGAAGAGCCUUGGUUUUUUG

Variants of: B1
Assay: polymerase ribozyme fitness, log enrichment relative to wild type (log ratio); higher = more active; in vitro selection for triplet polymerase activity
Summary of the method: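 Libraries of mutants in each subunit of a heterodimeric triplet polymerase ribozyme were generated by PCR and transcribed. In triplicate, each went through one in vitro selection round: annealing with biotinylated primer, partner subunit and triplets; frozen incubation at −7 °C; gel excision of extended constructs; streptavidin-bead capture; RT-PCR. Fitness, taken from Illumina sequencing of input and output libraries, is the logarithm of a genotype's enrichment over wild-type enrichment, averaged across replicates with inverse-variance weights. The logarithm is base 2, and genotypes needed ≥10 input reads and ≥1 read per output to be kept.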

Row | Variant | polymerase ribozyme fitness (log ratio)
1 | G51C U78C A121C G122U C124A | -4.73
2 | C53A C79A G117U | -4.98
3 | C53A C124G | 0.737
4 | G52U G61C | 0.0885
5 | C53A C86U G128U | -1.61
6 | G52A C104U G113C | -2.55
7 | G51C U112C | -1.34
8 | G51U C115U | -4.89
9 | G51U G58C G113C | -5.43
10 | C53A C89U U131G | 0.265
11 | G52A G77U G93A G122U | -2.45
12 | C53A C80U U106A | -5.29
13 | G52A C98A | -4.54
14 | C53A U59C | 0.311
15 | G52A C56U C72U G113C U125A | -2.88
16 | C53A G120U G127A | -0.445
17 | G52U A121C G127A | -0.484
18 | G52C A84G U87C A111G | -2.78
19 | G51C G60C A75U | -2.9
20 | G51U A84C C88A A121C | -1.74
21 | G52A C94A | -1.72

Row | Variant | polymerase ribozyme fitness (log ratio)
22 | G52C G93C | -1.82
23 | G52U G110A | -1.73
24 | G51U C53A G60A | -5.54
25 | G52U G61A G110U | -2
26 | C53A G71U | -1.5
27 | G52U C56U U116A | -4.17
28 | G52C C56A C102U U133A | -2.78
29 | C53A G61C | -4.19
30 | G51U G60A | -2.28
31 | C53A C62A U125C | -6.14
32 | C53A G60A U78C | 0.136
33 | G52U A105G A121C | -2.06
34 | G52C C70A G117U G120U | -4.71
35 | C53A C104A | -1.8
36 | G52U C56A C102A | -2.74
37 | G52C G63C U87C | -0.694
38 | G52U C72A C86A G113A G122C | -4.85
39 | G52C C73U G110U | -2.38
40 | G52U U96A | -2.01
41 | G51U G93C | -4.26
42 | G52A A74G C79G U96G | -0.912

Row | Variant | polymerase ribozyme fitness (log ratio)
43 | G52A G60U C82A C88U A90G U116A U130A | -6.12
44 | C53A C98U | -0.601
45 | C53A C98A | -5.56
46 | G51U G60U C73G | -2.23
47 | G52U A105C | -3.57
48 | G52C G69A | -3.55
49 | G52C G69U | -0.241
50 | G52U C82U G110U | -2.9
51 | G52A C102U G120A | -1.56
52 | G52A C62A U87A | -3.07
53 | C53A C56G G63C U106C | -0.653
54 | C53A G63U C114U | -5.9
55 | C53A C79U C86U | -0.479
56 | G51C G61A G120A U132A | -2.03
57 | G52A A111C | 0.197
58 | G52A A84U U131G | -0.974
59 | G52U A111C | -2.18
60 | G52U A111U | -3.93
61 | G52C U54G C82G | -1.46
62 | G52U A83U G127A | -3.16
63 | G52C C56G G71U C124U | -3.19

Row | Variant | polymerase ribozyme fitness (log ratio)
64 | G52A U126C | -1.17
65 | G52U G117C | -5.35
66 | G52U G117U | -3.39
67 | C53A U59C A121G | 1.49
68 | G52U C104A | -2.28
69 | G52A C70U C104A C124G | -3.65
70 | G51U C72A | -2.55
71 | G52A G57C C72U U116A U129C | -4.37
72 | C53A C62U C97U G120C | 0.732
73 | G52C U59C G60U A66G | -5.6
74 | C53A C97A | -4.2
75 | G52A C89G U129G | -2.09
76 | G51U G60U C79G | -1.64
77 | G52C G117A | -1.64
78 | G52A C104U G110C | -2.99
79 | G52A C85G | -1.03
80 | G51U C101A | -4.55
81 | G51U G52A C79A | -5.44
82 | G52A C62U C79G | -0.394
83 | G52U U87A | -1.25
